Measured values from paper PMC3616104, “Structural and Phylogenetic Studies with MjTX-I Reveal a Multi-Oligomeric Toxin – a Novel Feature in Lys49-PLA2s Protein Class” (PLoS ONE, 2013).

Key:
[1] = biological target: the molecule itself; assay: dynamic light scattering; MjTX-I 1.5 mg/ml, 18 °C, 20 mM Tris-HCl pH 8.0
[2] = biological target: the molecule itself; assay: dynamic light scattering; MjTX-I 1.5 mg/ml, 18 °C, 0.5, 2.0 and 10.0 mM Tris-HCl pH 8.0, two hours after addition of the buffer

B1: MjTX-I (myotoxin-I) from Bothrops moojeni venom (natural protein)
chain: SLVELGKMILQETGKNPVTSYGAYGCNCGVLGRGKPKDATDRCCYVHKCCYKKLTDCNPKKDRYSYSWKDKTIVCGENNSCLKELCECDKAVAICLRENLDTYNKKYKNNYLKPFCKKADPC
notes: Myotoxin-I (MjTX-I), Lys49-phospholipase A2 homologue from Bothrops moojeni venom, NCBI GI 17368325; about 14 kDa per monomer; also called Lys49-PLA2
[1]
  stoichiometry N: 4
[2]
  stoichiometry N: 2
